The data set in a line: soluble on expression in E. coli; label from the status in PepcDB or PDB records.
For the sequence “MSLSENPGATAQILSYNHVLSQLNREKTDVTEAKSLLNTAETSLSSMSTSMNRVNALVLQAINGTSDKDNMSQSAEEIKGLLDVLISVANSEDDGRYVFSGSSTSVKPFTTDKTTGEIIYNGTTENKKFRVTDTLEVEVFHDGSAMTDVFNNIQKIVDAMKSGDKDALSALQETNSKNIEIITNSMTNIGGQKNGVTAYDNVLSSKIVDFSERKSNVEEVNMPEAVSNLNKTSIAYQAALQSSVMVQKLSILNYMEGHHHHHH”, the “soluble on expression in E. coli” value is given as “soluble”.
With “MSLSESAPTPRRERVIVGMSGGVDSSVSALLLLQQGYQVEGLFMKNWDEDDGTEYCTAREDLADAQAVCDRIGIKLHTANFAAEYWDNVFEHFLAEYKAGRTPNPDILCNREIKFKAFLDYALMLGADLIATGHYVRRRDRDGRTELLKGLDPNKDQSYFLHAVGGEQIARSLFPVGELEKPEVRAIAEKHGLATAKKKDSTGICFIGERRFTDFLKQYLPAQPGDIETTEGKVIGRHSGLMYHTIGQRQGLGIGGLKEAGDDPWYVLGKDLQRNVLLVGQGNDHPLLFSRALLASRIYWVNPVELERPRRLRAKVRYRQSDQDCVLEKTAEGYRAVFDEPQRAVTPGQSVVFYDGDVCLGGGVIETAEAWDFGGRPEGHHHHHH”, the “soluble on expression in E. coli” value was “soluble”.
With “MSLSETTQTSQSLYQALWNSADVLRSKMDANDYKSYLLGMVFYKYLSDKMLFFVAETMEEETESLDEALAVYRKYYEDEETHEDLLAVITDEMSYAIHPDLTFTALVERVNDGSFQLEDLAQGFRDIEQSDELYENLFEDIDLYSKKLGATPQKQNQTVAAVMKELAVLDVAGHAGDMLGDAYEYLIGQFATDSGKKAGEFYTPQPVAKLMTQIAFLGREDKQGFTLYDATMGSGSLLLNAKRYSRQPQTVVYFGQELNTSTYNLARMNMILHGVPIENQFLHNADTLDEDWPTQEPTNFDGVLMNPPYSAKWSASSGFMDDPRFSPFGKLAPKSKADFAFLLHGYYHLKQDNGVMAIVLPHGVLFRGNAEGTIRKALLEEGAIDTVIGLPANIFFNTSIPTTVIILKKNRTNRDVYFIDASKEFDKGKNQNIMTDAHIEKILNAYKSREDIDKFAHLASFEEIVENDYNLNIPRYVDTFEEEEVEPLTEIVAKINQTNATIESQTASLLDMLGQLHGTTPEADEELKAFVKAFKGEGHHHHHH”, the “soluble on expression in E. coli” value is recorded as “soluble”.
On to “MSLSFKNNLKLLLSTQNVLIYILNSEEERLEYKIHLMIRQNIKKTIYCWNFIDGYYNNPNYLNKAIRNPLQAIEFIEQLNFPTSTIFFLKDFHVFINDISVIRKIKNLSRFLKQANSSIIISASEMQVPSLLKDFITVLEFPLPNYEEINLELHRLFKIMNVDSSIYSEYFHDLTLAYRGFSIEKIRISIAKLLTSNLSSTHLIKNILYEKRQLIEQTDEGHHHHHH”, for which the “soluble on expression in E. coli” value was “not soluble”.
With “MSLSFPQLHTVTSYSLLSSTVRIRSYVKQAKALGYQTLAITDINVLHGAVEFYEACQEAGIQPIIGLRLEYTPAEKEGHSELLLFAKNLKGYQQLMQLSSSKMTTEGPFYLAEHQSLLSDLFAVTLSAKGEVAQTFFEDEQQAVHAFQQLASYFDPQSLFVEHSFSMNQQRNPALFSFYQREQLPGVALQEVRHLTREEGFAVTVLESIKENNQLNITSQTPEIEGLNYLREAETTMEQMLQEGHHHHHH”, the “soluble on expression in E. coli” value was “not soluble”.
“MSLSFSAKVKGEICRYIDISKEEALAQISAIMKVCGTLAFSGRQISFKMTTENPASARLMFTILKDYFDIHAKLMVKKSNSLKKNNIYMVVVTEEMGVKKLLEITGILREIDGIMSLDYHIDENLVDTEEKKKAYIRGAFIGGGSISNPEKTYHLEFVTHSQEYAEDLGKLINTFGLKAKVIQRKNSYIVYIKEGEQIVDLLNIIGAHTALLELENIRIMKEMRNNVNRLVNCETANLSKTVNAAVRQVESIKLIEREIGLARLPKNLREVAELRLTYPEESLKELGEMLEPPVGKSGVNHRLRKIEKIAEELRTGNEGHHHHHH”: the “soluble on expression in E. coli” value is “soluble”.
As for “MSLSGCNGVPTSYVSDPVYSQAFVVTSGAPLPMLLMASAIQWNEDYAVTAKHTPFLRNVVHEGLGDVVFFKHKASSVPHWRQYVPGEAVTAVGFNSFMMPMQGKGHALSSLVRLEGTPGSVFYSVHDGPITKGMSGGPVFADDGKVVGINVAIIPTDEINAGKRPDLVGKDRISVFMSFSEIDKEWRRYQYLLAHKAKPKAPAAVKGYVAVAAKEGHHHHHH”, the “soluble on expression in E. coli” value was “soluble”.
As for “MSLSGLHQADLEMVAAAYAKSNATIVTYGMGITQHNEGTANVRLICDLLMLRGNLGKPGAGICPLRGHSNVQGNRTVGITEKPSPAFLDKLQQTFGFTPPAHHGHDAVQAMQAMIAGSAKALLCLGGNFAVALPDPGQCFPAMGKLDLSVHIATKLNRSHLLVARETFLFPCLGRTELDMQDGLRQAITVEDSMSMVHASAGKLAPASEFLLSEPAIVAGMARATLPGSRVPWLELVADYDKIRDLIEQTVPGFDDYNARIRVPGGFRMPLAAAERQWLTPSGKAEFFVFPGLHEDKEVDGADVLRLITLRSHDQYNTTIYALDDRYRGVFGRRDVLFISPADLAARGLAHGDLVDIETVIGGRRLRYEKITAIEYKIANGTVGAYYPEANRLVPLDYLDVDSGTPSYKSVPVRVLRSSPAEGHHHHHH”, the “soluble on expression in E. coli” value is given as “not soluble”.
In the case of “MSLSIIVASTMSDSGKSFITTGLVRILNAKPLKIQNMSLNSISTWDGGEIAFIQAYQAWGAGLRPERYMNPILLKIMGKGLEVIFMGSSLGIMSGNEYYNLATEKLWKKVSQFLSNDVVIEAAGGIGEPNFIDKDITAIKVMKEKRIPAILVLDIDRGGAFASAYGTYMMLPQSVRENLKGFIINKFRGDEKFLNDAIKWLEEKTGMRYLGYLPFFSEPPIMPEDSMNVYNFGDGNVEVAIIAYPYMSNFNEFYALVKSNARVSFVRKPKETAKADLVILPGSRNTLESLKWLVENGFVEQLRQRSMNILGICGGFQILGKKIVDPYGIEAGYPTEYEGLGIFDINVHYSKDKVVSMTTGISEYGEMNGYEIRRGVIKYMGEKPLLKITLRNGEKVSVEDGAKKDNIIGISVHGTLFSDGMKKLLKEFNINIHSQSMEEEIKQQAIRVEQFLRKYLHIDEIVEIYKEGHHHHHH”, the “soluble on expression in E. coli” value was “not soluble”.
On to “MSLSIKMRLGKEFLIDDLKRIEAMRNHLADNIMLMADANEAWRIDQAVIAFKEIEKFNLVWLEEPIKPDDFKGYSYLRSLGKIPIAAGENLHNLAEFNQLIDVNGVDFLEPDLTTCGGITPFMKVAKLAEVNNLPVCSHGVHELHVHLLASCPNASYLEFHAWRIDEFIDSPLKVLNGYTEAPDLPGHGINFDFEKVEKYNVGEGHHHHHH”, for which the “soluble on expression in E. coli” value was “not soluble”.
As to “MSLSILVTGATGTIGSLVTQGLASAGADVKAMVRQPGKRDFPAGVTEVVADLTDVSSMRVALSSVRTLFLLNAVTPDEVTQALIALNLAQEAGIERIVYLSVIHADTFTNVPHFTGKYTVERMIESLDIPATILRPAYFMQNDLMVQQTIQSYSVYPMPIGSAGVSMIDARDIADVAVAELLRRDEASSALDLVTLELVGPQALTGASVAQTWSSALDREIAYGGDDVAAFEGQLASYGPGWLAYDMRLMMAGIQKFGMQAAEGAVERLEAIIGHPLRSYEGFVREATAGEGHHHHHH”, the “soluble on expression in E. coli” value is reported as “soluble”.
Then “MSLSIQSGEILETVKMVADQNFDVRTITIGIDLHDCISSDINVLNQNIYNKITTVGKDLVTTAKYLSAKYGVPIVNQRISVTPIAQIAAATHADSYVSVAQTLDKAAKAIGVSFIGGFSALVQKGMSPSDEVLIRSIPEAMKTTDIVCSSINIGSTRAGINMDAVKLAGETVKRTAEITPEGFGCAKIVVFCNAVEDNPFMAGAFHGSGEADAVINVGVSGPGVVKAALENSDATTLTEVAEVVKKTAFKITRVGELIGREASKMLNIPFGILDLSLAPTPAVGDSVARILEEMGLSVCGTHGTTAALALLNDAVKKGGMMASSAVGGLSGAFIPVSEDEGMIAAAEAGVLTLDKLEAMTAVCSVGLDMIAVPGDTPAHTISGIIADEAAIGMINSKTTAVRIIPVTGKTVGDSVEFGGLLGYAPVMPVKEGSCEVFVNRGGRIPAPVQSMKNEGHHHHHH”, with “soluble”; and “MSLSISEKPLSELLRPKDFEDFVGQDHIFGNKGILRRTLKTGNMFSSILYGPPGSGKTSVFSLLKRYFNGEVVYLSSTVHGVSEIKNVLKRGEQLRKYGKKLLLFLDEIHRLNKNQQMVLVSHVERGDIVLVATTTENPSFVIVPALLSRCRILYFKKLSDEDLMKILKKATEVLNIDLEESVEKAIVRHSEGDARKLLNTLEIVHQAFKNKRVTLEDLETLLGNVSGYTKESHYDFASAFIKSMRGSDPNAAVYYLVKMIEMGEDPRFIARRMIIFASEDVGLADPNALHIAVSTSIAVEHVGLPECLMNLVECAVYLSLAPKSNSVYLAMKKVQELPVEDVPLFLRNPVTEEMKKRGYGEGYLYPHDFGGFVKTNYLPEKLKNEVIFQPKRVGFEEELFERLRKLWPEKYGGESMAEVRKELEYKGKKIRIVKGDITREEVDAIVNAANEYLKHGGGVAGAIVRAGGSVIQEESDRIVQERGRVPTGEAVVTSAGKLKAKYVIHTVGPVWRGGSHGEDELLYKAVYNALLRAHELKLKSISMPAISTGIFGFPKERAVGIFSKAIRDFIDQHPDTTLEEIRICNIDEETTKIFEEKFSEGHHHHHH”, with “soluble”; and “MSLSIYKDINIASAKPSLKERKNIKHYALDHLNIDEKNNAPLFKTLLEDAMRVSSKEILLIVGGSSFYLKSILEGLSRMPKLSGEEVVKIEREIATLSNPYIFLKSIDPNMAFKIHPNDTYRTHKALEIFYATCTPPSEYFKANPKKPFEHAISLFALSIEKSALHNNIKRRTKNMLHSGLVEEIKALYTQYPKDSQPFKAIGVKESVLFLEKRLTLKELEEAITSNTMKLAKRQNTFNKTQFNNLYVGSAEEVRHAILKHSKSGIKGEGHHHHHH”, with “not soluble”.
Turning to “MSLSKELAVTPKQSLEAVVSYFRSAHKEPDSAVRAIHHQPASEGEFSEMPAAVDSRLRAALAKRGIERLYTHQADAFDQIQAGKHVVIVTPTASGKTLCYNLPVLNLLLRDEGARAMYLFPTKALAEDQLHEFQGAVEEMGSEIRAFTYDGDTPQDARRAIRSRANVVLTNPDMLHSGILPHHTRWARYFENLRYIVIDELHYYRGVYGSHLANLLRRLSRICEFYNSKPQFICCSATIANPKELAEALTGEPFELVERNGAPRGEKFFIFYNPPVVNRQLGIRRSYIAETRRMALKFIENNLQTLVFANNRLATEVLVTYLKDACDRGPIPSETVRGYRGGYLPRERREIEQSLRAGKIRAVVATNALELGIDIGSLDAVVMAGYPGTIASSWQRAGRAGRRQSTSAAVMVASSAPLDQYIVEHPDYFFGRSPEHAYINPENLEIFLAHLKCAAFELPLRDDEKFGRHDLAEICRYLEEAGFLHHSAAAWHWTSDTYPADATSLRSVTSDNFVVVDITGEAKVIAEVSFPTALTTLHEKAIYLHEARQFHVERFDYDQRKAYVKSVDCDYYTDAIDYTQVKVLEEMEGEPQNGARRLHGDVRVTRQIVGFKKIKFYTMENVGAGKLNMPEQEMHTTAFWLHFPAAFLARFAEFTPTEKQSGISGLGNALRTVASLLLMCDPRDLGVALSEEIAGGLEAFEPNLYLYDNYPGGIGQSGPLYRLAPQLLRQTAGLLAACACEAGCPSCVGPSGETGERGKLVAARILAELMGTAEQITAEGHHHHHH”, the “soluble on expression in E. coli” value is on record as “soluble”.
As for “MSLSKIIPFREEIFHQINQILESQKAFIFLWGKSGSGKSVLLQRLAKKYNVDFINENFKDQSFLKEKIEFLISQGQSLIILDEVGMYDYAMLESIRIYSDSISFVLSSHKKLNILKKEHFKSRLSACFKLKNISLLELDDYIKLKFGMNFSNKCLKFLQKISQGNLRYIDKTLKSFYEINSFFDKNKSQEYILKLSALENGLLREGHHHHHH”, the “soluble on expression in E. coli” value is “soluble”.
Turning to “MSLSKKTQINLKIERAKEEDLPKLVDLYLRAYKGLEEYAYTHPKDVKSYLKWLWNRDKEGIFLAKVDGKIVGFGAGDANWFSRREGKRVGAIHEIVVDPEYQGHGVGTALMNTILEYFKKKGLDTAELWVGDENYKAINFYKKFGFQESGRYNYWIRMIKGIITITTDPNSSSVDKLAAALEHHHHHH”, the “soluble on expression in E. coli” value is “soluble”.

For the origin of these results see the DeepSol protein solubility set.
